Measurements published in patent US10829560B2, “Agents binding specifically to human cadherin-17, human cadherin-5, human cadherin-6 and human cadherin-20 RGD motif” (CONSEJO SUPERIOR DE INVESTIGACIONES CIENTÍFICAS, priority 2015, dated 2020).

Experiments:
β1 integrin = molecular target: T1, β1 integrin (Homo sapiens, UniProt P05556+P17301); test: β1 integrin activation by CDH17 proteins or cadherin RGD peptides (HUTS21 flow cytometry); format: cell-based; details: for conformational change of β1-integrin into a high affinity conformation: 9 aa peptides, MDA-MB-468, BLM and RKO cells, FIG. 16; for β1 integrin in high-affinity conformation: RKO and KM12SM cells, FIG. 5B, 5C; for induction of β1 integrin activation: RKO cells, 1 μg/mL peptide, FIG. 17
T1 construct: endogenous in cells; host or cells: RKO (A4); RKO, KM12SM, MDA-MB-468 and BLM (A9)
T1 sequence (P05556 21-798): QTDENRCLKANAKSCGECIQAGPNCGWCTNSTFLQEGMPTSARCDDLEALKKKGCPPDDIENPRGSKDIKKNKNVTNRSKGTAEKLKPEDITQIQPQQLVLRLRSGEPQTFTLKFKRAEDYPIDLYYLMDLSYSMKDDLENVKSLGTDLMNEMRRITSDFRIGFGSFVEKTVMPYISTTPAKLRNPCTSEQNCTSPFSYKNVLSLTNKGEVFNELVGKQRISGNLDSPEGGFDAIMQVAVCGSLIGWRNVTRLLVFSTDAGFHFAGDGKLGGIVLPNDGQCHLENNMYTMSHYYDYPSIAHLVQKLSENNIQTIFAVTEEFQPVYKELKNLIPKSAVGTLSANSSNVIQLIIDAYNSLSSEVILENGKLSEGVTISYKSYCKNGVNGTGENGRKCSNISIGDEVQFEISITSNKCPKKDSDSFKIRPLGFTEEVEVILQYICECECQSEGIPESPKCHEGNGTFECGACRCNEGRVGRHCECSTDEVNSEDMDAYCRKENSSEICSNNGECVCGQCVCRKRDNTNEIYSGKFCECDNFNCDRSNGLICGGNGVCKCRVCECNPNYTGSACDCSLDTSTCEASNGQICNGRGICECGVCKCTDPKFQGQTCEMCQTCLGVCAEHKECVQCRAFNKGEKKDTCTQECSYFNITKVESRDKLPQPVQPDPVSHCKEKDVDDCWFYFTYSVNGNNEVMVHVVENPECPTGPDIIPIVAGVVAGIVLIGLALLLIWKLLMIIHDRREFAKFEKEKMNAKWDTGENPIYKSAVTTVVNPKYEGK
T1 sequence (P17301 30-1181): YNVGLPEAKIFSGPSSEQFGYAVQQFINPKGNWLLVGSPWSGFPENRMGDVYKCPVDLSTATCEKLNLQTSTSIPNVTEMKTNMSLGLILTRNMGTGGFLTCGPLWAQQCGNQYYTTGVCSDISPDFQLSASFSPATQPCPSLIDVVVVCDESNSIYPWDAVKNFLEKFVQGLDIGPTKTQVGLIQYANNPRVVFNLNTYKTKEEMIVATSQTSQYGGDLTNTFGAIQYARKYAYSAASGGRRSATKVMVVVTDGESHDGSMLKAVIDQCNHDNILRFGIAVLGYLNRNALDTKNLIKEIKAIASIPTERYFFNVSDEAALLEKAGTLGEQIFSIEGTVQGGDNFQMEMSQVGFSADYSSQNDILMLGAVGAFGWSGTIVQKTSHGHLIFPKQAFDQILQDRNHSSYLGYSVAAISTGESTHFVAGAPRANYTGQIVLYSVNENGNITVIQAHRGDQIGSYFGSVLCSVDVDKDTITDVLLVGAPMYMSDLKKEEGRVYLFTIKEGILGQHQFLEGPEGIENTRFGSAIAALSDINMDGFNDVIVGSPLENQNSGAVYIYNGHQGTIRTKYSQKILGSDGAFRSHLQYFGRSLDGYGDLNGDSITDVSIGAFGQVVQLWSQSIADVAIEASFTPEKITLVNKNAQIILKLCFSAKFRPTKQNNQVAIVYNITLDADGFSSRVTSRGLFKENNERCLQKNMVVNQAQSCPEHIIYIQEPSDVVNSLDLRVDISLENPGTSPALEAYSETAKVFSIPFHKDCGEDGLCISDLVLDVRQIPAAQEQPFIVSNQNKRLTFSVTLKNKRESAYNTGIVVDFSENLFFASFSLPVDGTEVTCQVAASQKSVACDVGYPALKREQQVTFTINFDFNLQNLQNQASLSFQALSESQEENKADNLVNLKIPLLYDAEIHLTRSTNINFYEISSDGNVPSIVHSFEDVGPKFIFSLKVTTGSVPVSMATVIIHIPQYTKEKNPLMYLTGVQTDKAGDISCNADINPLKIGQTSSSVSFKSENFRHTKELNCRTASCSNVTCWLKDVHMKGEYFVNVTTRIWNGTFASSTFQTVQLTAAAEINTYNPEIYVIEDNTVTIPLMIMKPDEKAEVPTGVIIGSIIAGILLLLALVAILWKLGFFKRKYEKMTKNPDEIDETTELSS
Protocol: Cells were detached with 2 mM EDTA in PBS, incubated at 4° C. with primary antibodies (10 μg/ml) for 30 min, washed and incubated with Alexa 488 labelled-secondary antibodies (anti-mouse IgG or anti-rabbit IgG, Dako). Fluorescence was analysed in a Coulter Epics XL cytofluorometer. Mean fluorescence intensities for the indicated antibodies are shown inside each panel. As a reference, irrelevant control antibodies (anti-cadherin-11, Santa Cruz Biotechnologies) gave a mean fluorescence intensity of 0.3.
RKO cells were detached with 2 mm EDTA in PBS, washed with PBS, resuspended in DMEM and incubated with a 9-amino acid peptide containing the RGD motif and the flanking sequences from cadherin 5 (SEQ ID NO: 37 for the RGD motif of domain 2 (CDH5A), and SEQ ID NO: 19 for the RGD motif of domain 3 (CDH5B)), cadherin 6 (SEQ ID NO: 38), cadherin 17 (VSLRGDTRG) (SEQ ID NO: 1), cadherin 20 (SEQ ID NO: 39), and cadherin 16 (SEQ ID NO: 31, RAIRGDTEG) for 25 min at 37° C. in presence of immune sera or control serum (diluted 1:50). After incubation, cells were subjected to flow cytometry assays using anti-β1 integrin in high-affinity conformation antibodies (Huts21, BD Pharmingen) and Alexa 488-coupled anti-mouse IgG antibodies (Abcam). Fluorescence was analysed in a Coulter Epics XL cytofluorometer. Mean fluorescence intensities for the indicated antibodies are shown inside each panel. As a reference, irrelevant control antibodies gave a mean fluorescence intensity of 0.3.
Alternatively, RKO cells were starved for 4 h, detached with EDTA 2 mM in PBS, and incubated in serum-free DMEM with 1 μg/mL of the following peptides: 9 aa peptides including the RGD motifs and the flanking sequences corresponding to the cadherin 17 (SEQ ID NO: 1) and the two motifs present in cadherin-5 (SEQ ID NO: 37 for the RGD motif of domain 2 (CDH5A), and SEQ ID: 19 for the RGD motif of domain 3 (CDH5B)), and 7 aa or 5 aa peptides with 2 aa or 1 aa respectively in each side of the RGD motif corresponding to the sequence of CDH17, SLRGDTR (SEQ ID NO: 32), and LRGDT (SEQ ID NO: 14), respectively. Simultaneously the cells were incubated to the indicated anti-CDH17 RGD monoclonal antibodies (10 μg/mL). After 40 min, cells were washed and subjected to flow cytometry assays using HUTS21 antibody, which binds to β1-integrin in high affinity conformation. Data were collected in a FACScalibur™ cytometer (BD) and represented as % of the β1-integrin activation induced by the 9 aa CDH17 RGD peptide (SEQ ID NO: 1).

RKO and KM12SM cells [1] = test: Soluble binding assay using CDH17 ectodomain as ligand (flow cytometry); format: cell-based, human; details: 10 μg/mL, FIG. 3E
Protocol: (§1) For soluble binding assays, cells were detached, incubated for 40 min with CDH17 ectodomain (10 μg/mL) at 37° C. in Ca2+, Mg2+ and Mn2+-free HBSS medium (Life Technologies), washed, incubated with anti-CDH17 antibodies at 4° C., washed again, incubated with secondary antibodies and analyzed by flow cytometry. For cell adhesions to CDH17 Domain 6 (2-10 μg/mL), adhesion assays in 96 wells microtiter plates were performed as above but in medium containing 1 mM MnCl2 and cells were washed gently, using a multi-channel pipette. For blocking assays, cells were preincubated with anti-β1 integrin (5 μg/mL) for 10 min before adhesion.

RKO and KM12SM cells [2] = test: Cell adhesion to Matrigel after incubation with CDH17 DOM6 or Ecd; format: cell-based, human; details: FIG. 5D
Protocol: For cell adhesion, 96-well plates were coated with Matrigel (4 μL/mL) (BD Biosciences) or type IV collagen ([…]) (Sigma-Aldrich) in coating buffer (0.1 M NaHCO3 pH 8.8) for 20 h and incubated with adhesion medium (0.4% BSA in serum-free DMEM) for 2 h to block unspecific binding. Cell were starved for 5 h without serum, labeled with BCECF-AM (Invitrogen), detached with 2 mM EDTA in PBS, resuspended in serum-free DMEM and 7×10^4 cells in 100 μL were added to plates in triplicate and then incubated for 25 min. Non-adherent cells were removed by three washes with DMEM. Bound cells were quantified using a fluorescence analyzer (POLARstar Galaxy).

RKO and KM12SM cells [3] = test: Cell adhesion to plates coated with CDH17 domain 6; format: cell-based, human; details: for inhibition of cell adhesion to CDH17 domain 6 wt: FIG. 4B; for optimal dose for promoting cell adhesion to coated plates: FIG. 4A
Protocol: as §1

VSLRGDTRG (listed as Homo sapiens) [CDH17 peptide]
conformational change of β1-integrin into a high affinity conformation (β1 integrin): induced the conformational change of β1-integrin into a high affinity conformation | β1 integrin in high-affinity conformation (β1 integrin): increased high-affinity conformation β1 integrin in both cell lines

QGLRGDSGT (listed as Homo sapiens) [CDH5A]
conformational change of β1-integrin into a high affinity conformation (β1 integrin): induced the conformational change of β1-integrin into a high affinity conformation | induction of β1 integrin activation (β1 integrin): able to activate beta1 integrin

DQDRGDGSL (listed as Homo sapiens) [SEQ ID NO: 38]
conformational change of β1-integrin into a high affinity conformation (β1 integrin): induced the conformational change of β1-integrin into a high affinity conformation

RAIRGDTEG (listed as Homo sapiens) [SEQ ID NO: 31, reference compound]
conformational change of β1-integrin into a high affinity conformation (β1 integrin): not

Ecd RAD: recombinant CDH17 ectodomain mutant lacking RGD motif (RAD)
binding to the cell surface (RKO and KM12SM cells [1]): unable to bind to cells | cell adhesion to Matrigel after incubation (RKO and KM12SM cells [2]): significantly enhanced

RGDS [RGDS peptide]
concentration at which competition of cell adhesion to CDH17 domain 6 wt started (RKO and KM12SM cells [3]; both cell lines, 1 mM MnCl2, FIG. 4B): 1 µM | inhibition of cell adhesion to CDH17 domain 6 wt (RKO and KM12SM cells [3]; both cell lines): clear dose-dependent effect

LRGDT (listed as Homo sapiens)
induction of β1 integrin activation (β1 integrin): able to induce efficiently the integrin activation

SILRGDYQD (listed as Homo sapiens) [CDH5 RGD peptide]
conformational change of β1-integrin into a high affinity conformation (β1 integrin): induced the conformational change of β1-integrin into a high affinity conformation | induction of β1 integrin activation (β1 integrin): able to activate beta1 integrin

DMDRGDGSI (listed as Homo sapiens) [SEQ ID NO: 39]
conformational change of β1-integrin into a high affinity conformation (β1 integrin): induced the conformational change of β1-integrin into a high affinity conformation

SLRGDTR (listed as Homo sapiens)
induction of β1 integrin activation (β1 integrin): able to induce efficiently the integrin activation

RADS [RADS peptide]
inhibition of cell adhesion to CDH17 domain 6 wt (RKO and KM12SM cells [3]; both cell lines): did not inhibit cell adhesion

RAIRRGDTEG (listed as Homo sapiens) [CDH16 RGD, reference compound]
β1 integrin in high-affinity conformation (β1 integrin): had no effect on β1 integrin activation

CDH17 ectodomain: purified recombinant CDH17 ectodomain (wild type) expressed in baculovirus
binding to the cell surface (RKO and KM12SM cells [1]): bound to the cell surface | β1 integrin in high-affinity conformation (β1 integrin): enhanced the amount of β1 integrin in high-affinity conformation | cell adhesion to Matrigel after incubation (RKO and KM12SM cells [2]): significant increase in cell adhesion to Matrigel

B1: domain 6 wt: recombinant CDH17 domain 6 (571-665) expressed in E. coli (protein)
chain: FQAKVSEDVAIGTKVGNVTAKDPEGLDISYSLRGDTRGWLKIDHVTGEIFSVAPLDREAGSPYRVQVVATEVGGSSLSSVSEFHLILMDVNDNPP
optimal dose for promoting cell adhesion to coated plates (RKO and KM12SM cells [3]; KM12SM): 10 µg/mL | optimal dose for promoting cell adhesion to coated plates (RKO and KM12SM cells [3]; RKO): 2 µg/mL | β1 integrin in high-affinity conformation (β1 integrin): enhanced the amount of β1 integrin in high-affinity conformation | cell adhesion to Matrigel after incubation (RKO and KM12SM cells [2]): significant increase in cell adhesion to Matrigel | cell adhesion to Matrigel after incubation (RKO and KM12SM cells [2]; listed as CDH17 DOM6 wt): significantly enhanced
